# Test system: Escherichia coli TOP10
# Assay: shrunken log2 fold change of peptide-encoding DNA abundance (4.5 h post-induction vs induction); higher = less antimicrobial activity (less host growth inhibition)
# Conditions: time post-induction: 4.5 h; library: site-saturation at positions 5, 18, 19, 20
# 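Also: peptides expressed intracellularly from a pBAD plasmid library in pooled LB shake-flask culture, induced with 0.3% L-arabinose, DNA abundance read by NGS, three biological replicates, DESeq2 with apeglm shrinkage.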
row,Sequence,shrunken log2 fold change
1,RRIRVRPPRLPRPRPRPMHVPRP,0.0592
2,RRIRNRPPRLPRPRPRPDQDPRP,-0.00104
3,RRIRFRPPRLPRPRPRPWFCPRP,3.7
4,RRIRLRPPRLPRPRPRPNFGPRP,0.0635
5,RRIRRRPPRLPRPRPRPRYNPRP,-0.132
6,RRIRSRPPRLPRPRPRPEVVPRP,0.471
7,RRIRYRPPRLPRPRPRPCWRPRP,-0.138
8,RRIRFRPPRLPRPRPRPMQWPRP,-0.113
9,RRIRERPPRLPRPRPRPRHVPRP,0.0784
10,RRIRPRPPRLPRPRPRPYRWPRP,0.087
11,RRIRFRPPRLPRPRPRPSPAPRP,0.176
12,RRIRKRPPRLPRPRPRPFCLPRP,-0.0107
13,RRIRWRPPRLPRPRPRPRVMPRP,0.275
14,RRIRLRPPRLPRPRPRPQCKPRP,-0.425
15,RRIRKRPPRLPRPRPRPYCRPRP,-0.214
16,RRIRPRPPRLPRPRPRPVSLPRP,-0.104
17,RRIRIRPPRLPRPRPRPRMSPRP,-0.323
18,RRIRNRPPRLPRPRPRPSKFPRP,-0.601
19,RRIRTRPPRLPRPRPRPNFGPRP,-0.0173
20,RRIRPRPPRLPRPRPRPNHLPRP,-0.601
21,RRIRGRPPRLPRPRPRPQLAPRP,1.19
22,RRIRGRPPRLPRPRPRPAEFPRP,0.69
23,RRIRARPPRLPRPRPRPIMFPRP,-0.0901
24,RRIRPRPPRLPRPRPRPLDLPRP,-0.102
25,RRIRRRPPRLPRPRPRPNYNPRP,-0.556

row,Sequence,shrunken log2 fold change
1,RRIRPRPPRLPRPRPRPTVAPRP,0.277
2,RRIRHRPPRLPRPRPRPIAFPRP,-0.362
3,RRIRCRPPRLPRPRPRPFYCPRP,-0.645
4,RRIRQRPPRLPRPRPRPVGMPRP,0.18
5,RRIRRRPPRLPRPRPRPSKEPRP,0.137
6,RRIRGRPPRLPRPRPRPWYMPRP,0.0753
7,RRIRFRPPRLPRPRPRPWCLPRP,-0.17
8,RRIRVRPPRLPRPRPRPLKFPRP,0.044
9,RRIRWRPPRLPRPRPRPRWWPRP,0.0648
10,RRIRKRPPRLPRPRPRPCAWPRP,0.953
11,RRIRQRPPRLPRPRPRPLFDPRP,-0.607
12,RRIRDRPPRLPRPRPRPEGCPRP,0.0171
13,RRIRCRPPRLPRPRPRPYPHPRP,-0.438
14,RRIRVRPPRLPRPRPRPDRRPRP,0.206
15,RRIRVRPPRLPRPRPRPINWPRP,-0.147
16,RRIRSRPPRLPRPRPRPICWPRP,0.0446
17,RRIRPRPPRLPRPRPRPAERPRP,0.291
18,RRIRSRPPRLPRPRPRPPHKPRP,0.173
19,RRIRARPPRLPRPRPRPNEVPRP,0.0341
20,RRIRMRPPRLPRPRPRPFKFPRP,-0.012
21,RRIRIRPPRLPRPRPRPCQQPRP,-0.0169
22,RRIRLRPPRLPRPRPRPSFIPRP,-0.578
23,RRIRTRPPRLPRPRPRPYVRPRP,0.0143
24,RRIRSRPPRLPRPRPRPWHWPRP,0.211
25,RRIRYRPPRLPRPRPRPKSAPRP,0.0745

row,Sequence,shrunken log2 fold change
1,RRIRHRPPRLPRPRPRPPYDPRP,-0.0114
2,RRIRHRPPRLPRPRPRPTCDPRP,-0.011
3,RRIRPRPPRLPRPRPRPCLEPRP,-0.0989
4,RRIRCRPPRLPRPRPRPAWIPRP,-0.197
5,RRIRIRPPRLPRPRPRPFWNPRP,-0.277
6,RRIRNRPPRLPRPRPRPHWWPRP,0.127
7,RRIRARPPRLPRPRPRPPNGPRP,-0.00234
8,RRIRCRPPRLPRPRPRPGFPPRP,0.134
9,RRIRHRPPRLPRPRPRPGHCPRP,-0.133
10,RRIRNRPPRLPRPRPRPSRQPRP,0.0744
11,RRIRYRPPRLPRPRPRPGRSPRP,-0.184
12,RRIRWRPPRLPRPRPRPPIDPRP,0.1
13,RRIRYRPPRLPRPRPRPPHSPRP,-0.699
14,RRIRIRPPRLPRPRPRPQRMPRP,-0.387
15,RRIRQRPPRLPRPRPRPFTSPRP,-0.00281
16,RRIRGRPPRLPRPRPRPVKWPRP,0.47
17,RRIRKRPPRLPRPRPRPIETPRP,0.00938
18,RRIRNRPPRLPRPRPRPKFYPRP,-0.83
19,RRIRTRPPRLPRPRPRPQSVPRP,-0.104
20,RRIRFRPPRLPRPRPRPYLDPRP,-0.26
21,RRIRLRPPRLPRPRPRPCHLPRP,0.0143
22,RRIRNRPPRLPRPRPRPCSVPRP,0.0192
23,RRIRKRPPRLPRPRPRPWPGPRP,0.342
24,RRIRPRPPRLPRPRPRPSWYPRP,-0.698
25,RRIRRRPPRLPRPRPRPCANPRP,-0.0911

row,Sequence,shrunken log2 fold change
1,RRIRYRPPRLPRPRPRPCYNPRP,-0.857
2,RRIRCRPPRLPRPRPRPADTPRP,-0.0286
3,RRIRHRPPRLPRPRPRPVITPRP,0.0477
4,RRIRRRPPRLPRPRPRPKLAPRP,0.333
5,RRIRFRPPRLPRPRPRPDAHPRP,-0.0702
6,RRIRYRPPRLPRPRPRPVWLPRP,-0.0438
7,RRIRWRPPRLPRPRPRPWHVPRP,-0.201
8,RRIRARPPRLPRPRPRPMASPRP,0.543
9,RRIRNRPPRLPRPRPRPDTLPRP,-0.0286
10,RRIRQRPPRLPRPRPRPPKFPRP,0.117
11,RRIRGRPPRLPRPRPRPRIVPRP,0.824
12,RRIRRRPPRLPRPRPRPMLEPRP,0.0718
13,RRIRWRPPRLPRPRPRPGMNPRP,-0.0747
14,RRIRNRPPRLPRPRPRPRMRPRP,0.867
15,RRIRVRPPRLPRPRPRPTALPRP,0.388
16,RRIRRRPPRLPRPRPRPSCMPRP,0.019
17,RRIRNRPPRLPRPRPRPTQGPRP,0.331
18,RRIRWRPPRLPRPRPRPIITPRP,-0.827
19,RRIRPRPPRLPRPRPRPDQYPRP,-0.114
20,RRIRWRPPRLPRPRPRPIEEPRP,0.0406
21,RRIRARPPRLPRPRPRPFPGPRP,-0.116
22,RRIRQRPPRLPRPRPRPMQHPRP,-0.165
23,RRIRDRPPRLPRPRPRPESMPRP,0.0145
24,RRIRSRPPRLPRPRPRPFWHPRP,-0.0146
25,RRIRSRPPRLPRPRPRPTGLPRP,0.127

row,Sequence,shrunken log2 fold change
1,RRIRERPPRLPRPRPRPTRIPRP,0.17
2,RRIRPRPPRLPRPRPRPDVHPRP,-0.0196
3,RRIRSRPPRLPRPRPRPRWHPRP,0.111
4,RRIRRRPPRLPRPRPRPHAFPRP,-0.103
5,RRIRNRPPRLPRPRPRPDQLPRP,0.0418
6,RRIRVRPPRLPRPRPRPHTLPRP,-0.571
7,RRIRARPPRLPRPRPRPPVNPRP,0.36
8,RRIRPRPPRLPRPRPRPSITPRP,-0.401
9,RRIRKRPPRLPRPRPRPTDKPRP,0.208
10,RRIRERPPRLPRPRPRPVTDPRP,-0.069
11,RRIRVRPPRLPRPRPRPKYKPRP,-0.574
12,RRIRLRPPRLPRPRPRPMKVPRP,-0.00674
13,RRIRSRPPRLPRPRPRPSVGPRP,0.0671
14,RRIRKRPPRLPRPRPRPIYHPRP,-0.472
15,RRIRQRPPRLPRPRPRPEKQPRP,-0.267
16,RRIRSRPPRLPRPRPRPDTHPRP,-0.448
17,RRIRYRPPRLPRPRPRPHPDPRP,-0.299
18,RRIRKRPPRLPRPRPRPDRYPRP,-0.0261
19,RRIRARPPRLPRPRPRPWWFPRP,0.049
20,RRIRVRPPRLPRPRPRPYTKPRP,-0.868
21,RRIRFRPPRLPRPRPRPNIVPRP,-0.199
22,RRIRKRPPRLPRPRPRPNSNPRP,-0.115
23,RRIRYRPPRLPRPRPRPRVCPRP,0.0157
24,RRIRKRPPRLPRPRPRPWLYPRP,0.00941
25,RRIRIRPPRLPRPRPRPKQKPRP,-0.12

row,Sequence,shrunken log2 fold change
1,RRIRYRPPRLPRPRPRPFTQPRP,-0.646
2,RRIRKRPPRLPRPRPRPPTFPRP,0.149
3,RRIRCRPPRLPRPRPRPTTAPRP,0.166
4,RRIRSRPPRLPRPRPRPYYVPRP,-0.274
5,RRIRDRPPRLPRPRPRPCIHPRP,-0.233
6,RRIRSRPPRLPRPRPRPNLHPRP,-0.219
7,RRIRIRPPRLPRPRPRPFVCPRP,-0.797
8,RRIRTRPPRLPRPRPRPSLQPRP,-0.0953
9,RRIRCRPPRLPRPRPRPMANPRP,0.0226
10,RRIRTRPPRLPRPRPRPQRKPRP,0.138
11,RRIRMRPPRLPRPRPRPPCLPRP,-0.157
12,RRIRDRPPRLPRPRPRPPIMPRP,0.0621
13,RRIRWRPPRLPRPRPRPSAGPRP,0.231
14,RRIRGRPPRLPRPRPRPANIPRP,-0.0276
15,RRIRGRPPRLPRPRPRPCWQPRP,0.153
16,RRIRGRPPRLPRPRPRPPFEPRP,0.691
17,RRIRDRPPRLPRPRPRPSRIPRP,-0.307
18,RRIRARPPRLPRPRPRPPWEPRP,0.558
19,RRIRCRPPRLPRPRPRPKYKPRP,-0.834
20,RRIRCRPPRLPRPRPRPVLWPRP,0.136
21,RRIRERPPRLPRPRPRPYNRPRP,-0.112
22,RRIRQRPPRLPRPRPRPHLPPRP,0.0272
23,RRIRARPPRLPRPRPRPRQHPRP,0.278
24,RRIRNRPPRLPRPRPRPLINPRP,-0.533
25,RRIRHRPPRLPRPRPRPGFLPRP,-0.0294

# From the supplement of paper PMC9112550, “Optimization of the antimicrobial peptide Bac7 by deep mutational scanning” (BMC Biology, 2022)
